Reference: patent US20040009530A1 (ZYOMYX, published 2004)

B1: engineered chaperonin protein SP4-1 (designed binder)
chain: DDDRIPASGIVIDRVGRDSNMPHVVKNAKIALIDSALEIKKTEIEAKVQISDPSKIQDFLNQETNTFKQMVEKIKKSGANVVLCADDYAHVAYDYLAKEGIYAVGYVTESDMEKLAKATGAKIVTDLDDLTPSVLGEAETVEERPWGNNKETYVMGCKGSVSHHHHHHSEQKLISEEDLLRLE
notes: Protein-level screening was 'similar to that for the HP6054 selections', that is, with a FLAG-tag vector and anti-FLAG-HRP detection; not shown: FLAG-tag from the expression vector upstream of the insertion site
B2: engineered chaperonin protein SP4-2 (designed binder)
chain: DDDRIPASGIVIVGHNKVPSMPRVVKNAKIALIDSALEIKKTEIEAKVQISDPSKIQDFLNQETNTFKQMVEKIKKSGANVVLCGYKNLTVAYEYLAKEGIYAVYHVDESDMEKLAKATGAKIVTDLDDLTPSVLGEAETVEERGTANAPATYVMGCKGSVSHHHHHHSEQKLISEEDLLRLE
notes: not shown: FLAG-tag from the expression vector upstream of the insertion site
B3: engineered chaperonin protein SP4-5 (designed binder)
chain: DDDRIPASGIVIARPGESAFMPDVVKNAKIALIDSALEIKKTEIEAKVQISDPSKIQDFLNQETNTFKQMVEKIKKSGANVVLCNGDQADVAYDYLAKEGIYAVHFVDESDMEKLAKATGAKIVTDLDDLTPSVLGEAETVEERKYTEGVPTYVMGCKGSVSHHHHHHSEQKLISEEDLLRLE
notes: also called engineered protein clone SP4-5; not shown: FLAG-tag from the expression vector upstream of the insertion site
B4: engineered rubredoxin protein D7 (designed binder)
chain: MAKWVCKICGYIYDEDAGEDPGHRSRYISPGTKFEELTTGWTCPICRCTNSTTSTNCFEKLED
notes: Engineered Pyrococcus furiosus rubredoxin; No tags are stated for the assayed construct
B5: engineered rubredoxin protein G3 (designed binder)
chain: MAKWVCKICGYIYDEDAGFVEYYGHPNISPGTKFEELSRYVDGWTCPICSYGMPIFEKLED
notes: Engineered Pyrococcus furiosus rubredoxin
B6: engineered rubredoxin protein F3 (designed binder)
chain: MAKWVCKICGYIYDEDAGFVEYYDDGVISPGTKFEELHTAWTCPICSCTYNPFEKLED
notes: as for B4

Each binder was assayed against T1, human chorionic gonadotropin (human, UniProt P01215 25-116; P0DN86 21-165, biotinylated using an NHS-SS-biotin reagent (sites not given)) (assay: affinity ELISA, hCG immobilized, serial dilution of engineered protein).
T1 construct: The target was biotinylated and immobilized on Neutravidin- or Streptavidin-coated strip plates; also called hCG
T1 sequence (P01215 25-116, chain 1 of 2, other chains not shown): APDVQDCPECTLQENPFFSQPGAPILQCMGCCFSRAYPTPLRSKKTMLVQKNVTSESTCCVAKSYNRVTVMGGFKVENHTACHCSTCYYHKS
From the text: A total of 192 plaques were screened from the PEG precipitated and non-PEG precipitated eluted phage of round three (FIG. 9). Screening at the phage and protein level was similar to that for the HP6054 selections. The screen identified three engineered chaperonin proteins that were solubly expressed in E. coli and could bind hCG. Both the PEG-precipitated and non-PEG-precipitated selections gave similar results. In these affinity ELISA assays, the engineered chaperonin was serially diluted and the ELISA signal was plotted as a function of engineered chaperonin concentration to determine EC₅₀s, as above. The following EC₅₀ values for the three engineered library proteins was measured: […]
B1 was tested, and the EC50 was 5400 nM. B2 was tested, and the EC50 was 48000 nM. B3 showed an EC50 of 630 nM.

The binders below were run against T1, human chorionic gonadotropin (assay: affinity ELISA, hCG immobilized, serial dilution of engineered rubredoxin).
From the text: The method used to identify engineered rubredoxin proteins that bind to human chorionic gonadotropin (hCG) were the same as the method used to identify chaperonin proteins that bind to hCG described in Section 6.9.6, above. The method identified three engineered rubredoxin proteins that could bind hCG. In the affinity ELISA assays, the engineered rubredoxin was serially diluted and the ELISA signal was plotted as a function of engineered rubredoxin concentration to determine EC₅₀s, as above. The following EC₅₀ values for the three library proteins was measured: […]
Work on B4 yielded an EC50 of 4000 nM. B5 gave an EC50 of 81 nM. B6 was tested, and the EC50 was 35 nM.
